Kd data for one molecule are collected here from patent US20260243766A1 (published 2026).

This test addresses R6A/Q72R. Briefly: SPR. (In general: Surface plasmon resonance follows binding to a sensor surface in real time, without labels.)

B1: 10LH (scFv)
scFv: SRNGGDGQSVLTQPPSVSVSPGQTASITCSGDSLGNKYACWYQQKPGQSPVLVIYQDSKRPSGIPERFSGSNSGNTATLTISGTQAMDEADYYCQAWDSSRGYTVVFGTGTKVTVSSQTGGSGGGGSGGGGSGGGGSEVQLLESGGGLVQPGGSLRLSCAASGFTFDSYAMSWVRQAPGKGLEWVSAISGYGGSTYYADSVKGRFTISRDNSKNTLYLQMNSLRAEDTAVYYCAKYTYFLDAFDIWGQGTMVTVSSS
For the molecule B1, the dissociation constant Kd (in general, the concentration at which binding is half-saturated) is 18.8 µM.
